Target: BiP NBD (28–413) (Chinese hamster) (UniProt G3I8R9)
Sequence (G3I8R9 28-413): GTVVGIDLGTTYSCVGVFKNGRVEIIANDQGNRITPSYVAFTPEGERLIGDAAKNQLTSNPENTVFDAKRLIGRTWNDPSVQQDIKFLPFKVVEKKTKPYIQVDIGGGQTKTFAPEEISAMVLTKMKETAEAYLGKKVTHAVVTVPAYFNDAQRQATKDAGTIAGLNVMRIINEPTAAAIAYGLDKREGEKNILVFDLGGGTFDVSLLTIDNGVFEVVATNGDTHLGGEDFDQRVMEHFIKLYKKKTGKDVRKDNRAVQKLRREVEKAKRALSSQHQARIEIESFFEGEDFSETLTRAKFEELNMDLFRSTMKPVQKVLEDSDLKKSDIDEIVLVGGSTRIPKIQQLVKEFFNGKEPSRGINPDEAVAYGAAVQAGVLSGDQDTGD

## Full-length mouse MANF (wild-type) (from UniProt Q9CXI5 22-179) (natural protein)
  inhibition of MABA-ADP release, concentration-dependent (Supplementary Fig. 4a, b): 26.5 µM
